In US20250171562A1:

B1: CIgG4F5A1(RS) (Fc fusion)
chain 1: GPPCPPCPAPEFLGGPSVFLFPPKPKDTLMISRTPEVTCVVVDVSQEDPEVQFNWYVDGVEVHNAKTKPREEQFNSTYRVVSVLTVLHQDWLNGKEYKCKVSNKGLPSSIEKTISKAKGQPREPQVYTLPPCQEEMTKNQVSLWCLVKGFYPSDIAVEWESNGQPENNYKTTPPVLDSDGSFFLYSRLTVDKSRWQEGNVFSCSVMHEALHNHYTQKSLSLSLGKRSDVQLQESGGGLVQPGGSLRLSCAASGSIFSIDIMGWYRQAPGKQRELVATMPEGNYINYADSVKGRLTLSRDKGKNTVYLQLNSLKPEDTAVYYCYGFGVREGRGNVYWGQGTQVTVS
chain 2: GPPCPPCPAPEFLGGPSVFLFPPKPKDTLMISRTPEVTCVVVDVSQEDPEVQFNWYVDGVEVHNAKTKPREEQFNSTYRVVSVLTVLHQDWLNGKEYKCKVSNKGLPSSIEKTISKAKGQPREPQVCTLPPSQEEMTKNQVSLSCAVKGFYPSDIAVEWESNGQPENNYKTTPPVLDSDGSFFLVSRLTVDKSRWQEGNVFSCSVMHEALHNHYTQKSLSLSLGKRSEVQLLESGGGLVQPGGSLRLSCAASGFTFGNYDMAWVRQAPGKRPEWVSSIDTGGDITHYADSVKGRFTISRDNAKNTLYLQMNSLRPEDTAVYWCATDEEYALGPNEFDYYGQGTLVTVSS
B2: CIgG4F5A1(G4S)1 (Fc fusion)
chain 1: GPPCPPCPAPEFLGGPSVFLFPPKPKDTLMISRTPEVTCVVVDVSQEDPEVQFNWYVDGVEVHNAKTKPREEQFNSTYRVVSVLTVLHQDWLNGKEYKCKVSNKGLPSSIEKTISKAKGQPREPQVYTLPPCQEEMTKNQVSLWCLVKGFYPSDIAVEWESNGQPENNYKTTPPVLDSDGSFFLYSRLTVDKSRWQEGNVFSCSVMHEALHNHYTQKSLSLSLGKGGGGSDVQLQESGGGLVQPGGSLRLSCAASGSIFSIDIMGWYRQAPGKQRELVATMPEGNYINYADSVKGRLTLSRDKGKNTVYLQLNSLKPEDTAVYYCYGFGVREGRGNVYWGQGTQVTVS
chain 2: GPPCPPCPAPEFLGGPSVFLFPPKPKDTLMISRTPEVTCVVVDVSQEDPEVQFNWYVDGVEVHNAKTKPREEQFNSTYRVVSVLTVLHQDWLNGKEYKCKVSNKGLPSSIEKTISKAKGQPREPQVCTLPPSQEEMTKNQVSLSCAVKGFYPSDIAVEWESNGQPENNYKTTPPVLDSDGSFFLVSRLTVDKSRWQEGNVFSCSVMHEALHNHYTQKSLSLSLGKGGGGSEVQLLESGGGLVQPGGSLRLSCAASGFTFGNYDMAWVRQAPGKRPEWVSSIDTGGDITHYADSVKGRFTISRDNAKNTLYLQMNSLRPEDTAVYWCATDEEYALGPNEFDYYGQGTLVTVSS
B3: NIgG4F5A1(G4S)2 (Fc fusion)
chain 1: DVQLQESGGGLVQPGGSLRLSCAASGSIFSIDIMGWYRQAPGKQRELVATMPEGNYINYADSVKGRLTLSRDKGKNTVYLQLNSLKPEDTAVYYCYGFGVREGRGNVYWGQGTQVTVSGGGGSGGGGSGPPCPPCPAPEFLGGPSVFLFPPKPKDTLMISRTPEVTCVVVDVSQEDPEVQFNWYVDGVEVHNAKTKPREEQFNSTYRVVSVLTVLHQDWLNGKEYKCKVSNKGLPSSIEKTISKAKGQPREPQVYTLPPCQEEMTKNQVSLWCLVKGFYPSDIAVEWESNGQPENNYKTTPPVLDSDGSFFLYSRLTVDKSRWQEGNVFSCSVMHEALHNHYTQKSLSLSLGK
chain 2: EVQLLESGGGLVQPGGSLRLSCAASGFTFGNYDMAWVRQAPGKRPEWVSSIDTGGDITHYADSVKGRFTISRDNAKNTLYLQMNSLRPEDTAVYWCATDEEYALGPNEFDYYGQGTLVTVSSGGGGSGGGGSGPPCPPCPAPEFLGGPSVFLFPPKPKDTLMISRTPEVTCVVVDVSQEDPEVQFNWYVDGVEVHNAKTKPREEQFNSTYRVVSVLTVLHQDWLNGKEYKCKVSNKGLPSSIEKTISKAKGQPREPQVCTLPPSQEEMTKNQVSLSCAVKGFYPSDIAVEWESNGQPENNYKTTPPVLDSDGSFFLVSRLTVDKSRWQEGNVFSCSVMHEALHNHYTQKSLSLSLGK
B4: NIgG4F5A1(G4S)3 (Fc fusion)
chain 1: DVQLQESGGGLVQPGGSLRLSCAASGSIFSIDIMGWYRQAPGKQRELVATMPEGNYINYADSVKGRLTLSRDKGKNTVYLQLNSLKPEDTAVYYCYGFGVREGRGNVYWGQGTQVTVSGGGGSGGGGSGGGGSGPPCPPCPAPEFLGGPSVFLFPPKPKDTLMISRTPEVTCVVVDVSQEDPEVQFNWYVDGVEVHNAKTKPREEQFNSTYRVVSVLTVLHQDWLNGKEYKCKVSNKGLPSSIEKTISKAKGQPREPQVYTLPPCQEEMTKNQVSLWCLVKGFYPSDIAVEWESNGQPENNYKTTPPVLDSDGSFFLYSRLTVDKSRWQEGNVFSCSVMHEALHNHYTQKSLSLSLGK
chain 2: EVQLLESGGGLVQPGGSLRLSCAASGFTFGNYDMAWVRQAPGKRPEWVSSIDTGGDITHYADSVKGRFTISRDNAKNTLYLQMNSLRPEDTAVYWCATDEEYALGPNEFDYYGQGTLVTVSSGGGGSGGGGSGGGGSGPPCPPCPAPEFLGGPSVFLFPPKPKDTLMISRTPEVTCVVVDVSQEDPEVQFNWYVDGVEVHNAKTKPREEQFNSTYRVVSVLTVLHQDWLNGKEYKCKVSNKGLPSSIEKTISKAKGQPREPQVCTLPPSQEEMTKNQVSLSCAVKGFYPSDIAVEWESNGQPENNYKTTPPVLDSDGSFFLVSRLTVDKSRWQEGNVFSCSVMHEALHNHYTQKSLSLSLGK
B5: NIgG4F5A1(G4S)1 (Fc fusion)
chain 1: DVQLQESGGGLVQPGGSLRLSCAASGSIFSIDIMGWYRQAPGKQRELVATMPEGNYINYADSVKGRLTLSRDKGKNTVYLQLNSLKPEDTAVYYCYGFGVREGRGNVYWGQGTQVTVSGGGGSGPPCPPCPAPEFLGGPSVFLFPPKPKDTLMISRTPEVTCVVVDVSQEDPEVQFNWYVDGVEVHNAKTKPREEQFNSTYRVVSVLTVLHQDWLNGKEYKCKVSNKGLPSSIEKTISKAKGQPREPQVYTLPPCQEEMTKNQVSLWCLVKGFYPSDIAVEWESNGQPENNYKTTPPVLDSDGSFFLYSRLTVDKSRWQEGNVFSCSVMHEALHNHYTQKSLSLSLGK
chain 2: EVQLLESGGGLVQPGGSLRLSCAASGFTFGNYDMAWVRQAPGKRPEWVSSIDTGGDITHYADSVKGRFTISRDNAKNTLYLQMNSLRPEDTAVYWCATDEEYALGPNEFDYYGQGTLVTVSSGGGGSGPPCPPCPAPEFLGGPSVFLFPPKPKDTLMISRTPEVTCVVVDVSQEDPEVQFNWYVDGVEVHNAKTKPREEQFNSTYRVVSVLTVLHQDWLNGKEYKCKVSNKGLPSSIEKTISKAKGQPREPQVCTLPPSQEEMTKNQVSLSCAVKGFYPSDIAVEWESNGQPENNYKTTPPVLDSDGSFFLVSRLTVDKSRWQEGNVFSCSVMHEALHNHYTQKSLSLSLGK
B6: CIgG4F5A1(G4S)2 (Fc fusion)
chain 1: GPPCPPCPAPEFLGGPSVFLFPPKPKDTLMISRTPEVTCVVVDVSQEDPEVQFNWYVDGVEVHNAKTKPREEQFNSTYRVVSVLTVLHQDWLNGKEYKCKVSNKGLPSSIEKTISKAKGQPREPQVYTLPPCQEEMTKNQVSLWCLVKGFYPSDIAVEWESNGQPENNYKTTPPVLDSDGSFFLYSRLTVDKSRWQEGNVFSCSVMHEALHNHYTQKSLSLSLGKGGGGSGGGGSDVQLQESGGGLVQPGGSLRLSCAASGSIFSIDIMGWYRQAPGKQRELVATMPEGNYINYADSVKGRLTLSRDKGKNTVYLQLNSLKPEDTAVYYCYGFGVREGRGNVYWGQGTQVTVS
chain 2: GPPCPPCPAPEFLGGPSVFLFPPKPKDTLMISRTPEVTCVVVDVSQEDPEVQFNWYVDGVEVHNAKTKPREEQFNSTYRVVSVLTVLHQDWLNGKEYKCKVSNKGLPSSIEKTISKAKGQPREPQVCTLPPSQEEMTKNQVSLSCAVKGFYPSDIAVEWESNGQPENNYKTTPPVLDSDGSFFLVSRLTVDKSRWQEGNVFSCSVMHEALHNHYTQKSLSLSLGKGGGGSGGGGSEVQLLESGGGLVQPGGSLRLSCAASGFTFGNYDMAWVRQAPGKRPEWVSSIDTGGDITHYADSVKGRFTISRDNAKNTLYLQMNSLRPEDTAVYWCATDEEYALGPNEFDYYGQGTLVTVSS

Molecular target: mixture of three Der p 2 specific recombinant human IgE clones H10, H12, P4E (human) (UniProt P01854)
Sequence (P01854 other isoform, or with tags, fused parts or gaps): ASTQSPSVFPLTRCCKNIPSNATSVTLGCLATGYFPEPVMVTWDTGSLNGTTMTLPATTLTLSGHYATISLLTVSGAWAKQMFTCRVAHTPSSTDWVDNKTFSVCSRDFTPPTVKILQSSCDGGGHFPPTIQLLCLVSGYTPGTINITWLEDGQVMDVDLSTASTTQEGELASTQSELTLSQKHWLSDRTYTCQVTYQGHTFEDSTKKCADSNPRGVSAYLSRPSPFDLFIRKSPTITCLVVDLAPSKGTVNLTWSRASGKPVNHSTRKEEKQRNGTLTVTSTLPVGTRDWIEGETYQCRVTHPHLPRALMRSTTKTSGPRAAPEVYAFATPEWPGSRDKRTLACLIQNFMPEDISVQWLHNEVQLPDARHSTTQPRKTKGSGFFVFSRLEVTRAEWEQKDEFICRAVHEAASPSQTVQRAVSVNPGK
Experiment: RBL-SX38 IgE displacement, FACS

| Binder | Max effect/effect 1 µM [%] | EC50 [nM] |
| --- | --- | --- |
| B1 | 0 | – |
| B2 | 19 | – |
| B3 | 75 | 21.2 |
| B4 | 48 | 34.8 |
| B5 | 67 | 28.9 |
| B6 | 25 | – |
